In patent publication US20240067722A1:

Tests used:
[1] = molecular target: human LAG-3 expressed on cells (human) (UniProt P18627)
[2] = molecular target: Recombinant human LAG-3 protein (Fc Chimera), R&D 2319-L3 (human) (UniProt P18627); assay: flow cytometry competition, huLAG-3-Fc on HLA-DR expressing cells, VHH at 500 nM

B1: huLAG-3 specific VHH 3150 (VHH)
VHH: QVQLQESGGGLVQAGGSLRLSCAASGITFDDYAIGWFRQAPGKEREGVSCIRSSDDSTYYADSVKGRFTISSDNAKNTVYLQMNSLKPEDTAVYYCARDVYSDCKGPYDSWGRGTQVTVSS
GFP expression by 2D3 cells (measure of TCR signaling) [1]: 2 fold | percent block of the LAG-3/HLA-DR interaction [2]: 75%

B2: huLAG-3 specific VHH 3185 (VHH)
VHH: QVQLQESGGGLVQPGGSLKLSCAASGFTWDYSAIGWFRQAPGKEREGVSCITSSGKDTQYLDSVKGRFTISRDNTKNTVYLQMNNLKPEDTAVYYCAAPGRVRGSCNGRWDYWGQGTQVTVSS
percent block of the LAG-3/HLA-DR interaction [2]: 75%
